We go through 40 sequences from the nanobody polyreactivity screen of Harvey et al. (2022).

This data set is described as follows: yeast display, Sf9 membrane polyspecificity reagent, FACS + sequencing; frameworks hold sequencing errors. In a few lines: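 A nanobody's polyreactivity label depends on the gate it was sorted from. Yeast display cells were stained with 10% biotinylated, detergent-solubilized Sf9 membrane reagent for 1 hour at 4 °C, enriched on streptavidin microbeads and sorted by FACS. The low and high (top ~1%) gates were set on anti-HA fluorescence for expression and streptavidin fluorescence for reagent binding.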
Turning to “QVQLVESGGGLVQAGGSLRLSCAASGSIFVRNAMGWYRQAPGKERELVASISYSGGTTYADSVKGRFTISRDNAKNTVYLQMNSLKPEDTAVYYCNAGGVYPRFTFLEQGYEMDYWGQGTQVTVSS”, the “polyreactivity (PSR sort gate)” value is reported as “low polyreactivity”. With “QVQLVESGGGLVQAGGSLRLSCAASGRTFAFNAMGWYRQAPGKERELVATISWSGGSTYYADSVKGRFTISRDNAKNTVYLQMNSLKPEDTAVYYCGAEYVVYRYRLYGTVAYDYWGQGTQVTVSS” the entry was “high polyreactivity”; with “QVQLVESGGGLVQAGGSLRLSCAASGFTFRVYAMGWNRQAPGKEREFVASITWGGGRPYYADSVKGRFTISRDNAKNTVYLQMNSLKPEDTAVYYCAAYGRLDSYVSYYYWGQGTQVTVSS”, “high polyreactivity”. Regarding “QVQLVESGGGLVQAGGSLRLSCAASGRTFGYYVMGCYRQAPGKERELVAAISASGGSTYYADSVKGRFTISRDNAKNTVYLQMNSLKPEDTAVYYCNADYLSQPDWYYFYLFDYWGQGTQVTVSS”, the “polyreactivity (PSR sort gate)” value is on record as “high polyreactivity”. As for “QVQLVESGGGLVQAGGSLRLSCAASGRIFYGYAMGWYRQAPGKERDLVAGISYRGARTYYADSVKGRFTISRDNAKNTVYLQMTSLKPEDTAVYYCNAVPYYPFAFGALDYWGQGTQVTVSS”, the entry is “high polyreactivity”; as for “QVQLVESGGGLVQAGGSLRLSCAASRITLNRNAMGWYRQAPGKERELVARISRRGGTTYYADSVKGRFTISRDNENNTVYLQMNSLKPEDTAVYYFNAGPYGGNPFDYWGQGPQVTVSS”, “high polyreactivity”.

Turning to “QVQLVESGGGLVQAGGSLRLSSAAYGRTFRPYAMGWYRQAPGKERELVAAIDSSGTSTYYADSVKGRFTISLDNAKNTVYLQMNSLKPEDTAVYYCAAGSDPTGRRYDYWGQGTQVTVSS”, the “polyreactivity (PSR sort gate)” value is listed as “low polyreactivity”. As for “QLQLVESGGGLVQAGGSLRLSCAASGSIFRINAMGWYRQEPGKESELVSAISTRSGRTYYADSVKVRFTISRDNSKNTVYLQMNSLKPEDTAVYYCARYRTQASGYGGYDYWGQGTQVTVSS”, the entry is “high polyreactivity”; as for “QVQLVESGGGLVQAGGSHRLSCAASGSTYTYNAMGWYRQAPGKERELVAAISSSGGTTYYADSVKGRFTISRDNAKNTVYLQMTSLKPEDTAVYYCAKRWLYTSAFRIMDYWGQGTQVTVSS”, “high polyreactivity”; as for “QVQLVESGGGLVQAGGSLRLSCAASGRIFDRYVMGWYRQAPGKERELVAAISSGGSTYYADSVKGRFTISRDNAKNTVYLQMNSLKPEDTAVYYCAADRRSKYDYWGQGTQVTVSS”, “low polyreactivity”. For “QVQLVESGGGLVQAGGSLRLSCAASGFTLWLYAMGWYRQAPGKERELVATISYRGDSTYYADSVKGRFTISRDNAKNTVYLQMNSLKPEDTAVYYCARRYTHTGRYYYWGQGTQVTVSS”, the “polyreactivity (PSR sort gate)” value was “high polyreactivity”. Turning to “QVQLVESGGGLVQAGGSLRLSCAASGRIFWGYDMGWYRQAPGKEREFVAAISSGGGRKYYADSVKGRFTISRDNAKNTVYLQMNSLKPEDTAVYYCNAELNWYYYIHLDYWGQGTQVTVSS”, the “polyreactivity (PSR sort gate)” value is on record as “low polyreactivity”.

Take “QVQLVEAGRGLVQAGGSLRLSCAASGRTIDHYAMGWYRQAPGKERELVAAMSPTGGSTYYADSVKGRFTISRDNAKNSVYLQMNSLKPEDTAVYYCNARYYFYSATVDRYYHFYYWGQGTQVTVSS”: the “polyreactivity (PSR sort gate)” value is reported as “high polyreactivity”. With “QVQLVESGGGLVQAGGSLRLICAASGPTFTKANAMVWYRQAPGKERELVAAITDGGSTYADSVKGRFTNSRDNSKNTVYLQMNCLKPEDTAVYYCAKENEVFYDASYDYWGQGTQVTVSS” the entry was “low polyreactivity”; with “QVQLVESGGGLVQAGGSLRLSCAASGLILVYYAMGWYRQAPGKERELVAAITPGGSTKYADSVKGRFTISRDNAKNTVYFQMNSLKPEDTAVYYCAVDGDWHEPGNYIYEYDYWGQGTQVTVSS”, “low polyreactivity”. On to “QVQLVESGGGLVQAGGSLRLSCAASGNTFRYNTMGWYRQAPGKERELVAVITRRGSSTYYADSVKGRFTISRDNAKNTVYLQMNSLKPEDTAVYYCAAAPYYVTLVTRRDYWGQGTQVTVSS”, for which the “polyreactivity (PSR sort gate)” value is “high polyreactivity”. With “QVQLVESGGGLVQAGGSLRLSCAASGFTFNDYAMGWYRQAPGKERELVAAIDWSGGRTYYADSVKGRFTISRDNAKNTVYLQMNSLKPEDTAVYYCAAVLYSRLYLYRLDYWGQGTQVTVSS” the entry was “low polyreactivity”; with “QVQLVESGGGLVQAGGSLRISCAASGFIFASYTMGWYRQAPGKERELVAAISRAGSTYYADSVKGRFTISPDNAKNTVYLQMNSLKPEDTAVYYCNAVSWRTSRYDYWGQGTQVTVSS”, “high polyreactivity”.

For the sequence “QVQLVESGGGLVQAGGSLRLSCAASGSIFYYYAMGWYRQAPGKEREFVATIRRSGASTYYADSVKGRFTISRDNAKNTVYLQMNSLKPEDTAVYYCNAASARRPIYEAARWSKYDYWGQGTQVTVSS”, the “polyreactivity (PSR sort gate)” value is reported as “low polyreactivity”. As for “QVQLVESGGGLVQAGGSLRLSCAASGSTFPPYAMGWYRQAPGKEREFVARISWTGGSTYYADSVKGRFTISRDNAKNTVYLQMNCLKPEDTAVYYCAAKSYWGQGTQVTVSS”, the entry is “high polyreactivity”; as for “QVQLVESGGGLVQAGGSLRLSCAASGRTFLYNAMGWYRQAPGKERELVASISYSGGSTYYADSVKGRFTISRDTAKYTVYLQMNSLKPEDTAGYYCAARFYASQDIRYDYWGQGTQVTVSS”, “high polyreactivity”; as for “QVQLVESGGGLDQAGGSLRLSCAASGITFSTYAMGWYRQAPGKEREFVAAISASGGTTYYADSVKGRFTISRDNAKNTVYLQMNSLKPEDTAVYYCAADRFRVYLIYIWAMGYWGQGTQVTVSS”, “high polyreactivity”. As to “QVQLVETGGGLVQAGGSLRLCCAASGRIFWYNAMGWYRPAPGKERELVAAISSIDGTTYYADSVKGRFTISRDNAKNTVYLQMNSLKPEDTAVYYCAAEDPADQYDYWGQGTQVTVSS”, the “polyreactivity (PSR sort gate)” value is given as “high polyreactivity”.

Regarding “QVQLVESGGGLVQAGASLRLSCAASGRTFGRYTMGWYRQAPGKEREFVARINWNGGGTYYADSVKGRFTISRDNAKNTVYLQMNSLKPEDTAVYYCNARKRGARFILGYDYWGQGTQVTVSS”, the “polyreactivity (PSR sort gate)” value is on record as “low polyreactivity”. As for “QVQLVESGGGLVQAGGSLRVSCAASGSIFKIYAMGWYRLAPGKERELVASITGSGGSTYYADSVKGRFTISRDNAKNTVYLQRNCLKPEDTAVYYCAAAVLGSSKSEVDPDRPEYYYWGQGTQVTVSS”, the entry is “low polyreactivity”; as for “QVQLVESGGGLVQAGGSLRLSCAASGSIFAYYAMGWYRQAPGKERELVAAISSSGGSTTYADSVKGRFTISRDNAKNTVYLQMNSLKPEDTAVYYCNAAWRRSRYYYWGQGTQVTVSS”, “high polyreactivity”; as for “QVQLVESVGGLVQAGGSLRLSCAASGRTFGRYAMGWYRQAPGKERELVAGISRSGDSTHYADSVKGRFTISRDNAKNTVYLQMNSLKPEDTAVYYCNKETPTIGARKYEYWGQGTQVTVSS”, “low polyreactivity”.

On to “QVQLVESGGGLVQAGGSLRLSCAASGFNFTTYAMGSYRHAPGKERELVAAISGRGGTTDYADSVKGRFTISRDNAKNTVYLHMNSLKPEATAVYYCAADGYPGDDYWGQGTQVTVST”, for which the “polyreactivity (PSR sort gate)” value is recorded as “high polyreactivity”. With “QVQLVESVGGLVQAGGSLRLSCAASGFILRVNDMGWYRQAPGKERELVAAISQGDGSTYYADSVKGRFTISSDNAKNSVYLQMNSLKPEDNAVYYCNAELYRDLGGYDHWGQGTQVTVSS” the entry was “low polyreactivity”. As for “QVQLVESGGGLVQAGGSLRLSCAASGSTFPGYAMGWYRQAPGKERELVAAITTSGGSTYYADSVKGRFTISRDNAKNTVYLQMNSLKPEDTAVYYCAADYWYYLDAGYYWGQGTQVTVSS”, the entry is “low polyreactivity”; as for “QVQLVESGGGLVQAGGSLRLSCAASGRTFNVYAMGWYRQAPGKERELVAVITNGGSTNYADSVKGRFTISRDNAKNTVYLQMNSLKPEDTAVYYCAASWGYGALTPDMGYWGQGTQVTVSS”, “low polyreactivity”; as for “QVQLVESGGGLVQAGGSLRLSCAASGSTFRKYAMGWYRQAPGKEREFVAAITWSTGTTYYADSVKGRFTISRDNAKNTVYLQMNSLKPEDTAVYYCNAAFWAPQAPCYYYWGQGTQVTVSS”, “low polyreactivity”.

“QDQLLESGGGLVQAGGSLRLSCAASGSTFGANAMGWYRQAPGKEREFVAAISRSGLRTYYADSVKGRFTNSRDYAKNTVYIQMNSLKPEDTAVYYCSADCYWWTYTRYDYWGQGSQVTVSS”: the “polyreactivity (PSR sort gate)” value is “low polyreactivity”. For “QVQLVESGGGLVQAGGSLRLSCAASGRIFAYYAMEWYRQAPGKERELVAAITRSGARTYYADSVKGRFTISRDNAKNSVYLQMNSLKPEDTAVYYFAAEGVRIGTRYDYWGQGTQVTVSS”, the “polyreactivity (PSR sort gate)” value is listed as “high polyreactivity”. As for “QVQLVESGGGLVQAGGSLRLSCAASGYTFLYYAMGWYRQAPGKEREFVAAISRSGGSTYYADSVKGRFTISRDNAKNTVYLQMNSLKPEDTAVYFCAARFRYQHQRGDYWGQGTQVTVSS”, the entry is “high polyreactivity”; as for “QVQLVESGGGLVQAGGSLRLSCAASGSIFHPYAMGWYRQAPGKERELVAAISGGGTNTYYADSVKGRFTISRDNAKNTVYLQMNSLKPEDTAVYYCAAERYYWGQGTQVTVSS”, “high polyreactivity”. As for “QVQLVESGGGLVQAGGRLRLSCAASGSIFSYNAMGWYRQAPGKEREVVATISWSGGSTYYADSVKGPFTISRDYAKNTVFLQMNSLKPEDTGGYSCAARKYGQRYRRDYWGQGTQVTVSS”, the entry is “low polyreactivity”; as for “QVQLVESGGGLVQAGGSLRLSCAASGSIFLRIAMGWYRQAPGKERELVARIRGGGSTYYADSVKGRFTISRDNAKNTVYLQMNSLKPEDTAVYYCAKDYYKYADGYDYWGQGTQVTVSS”, “high polyreactivity”.

“QVQLVESGGGIVQAGGSIRLSCAASGYTFAKYAMGWYRQAPGKERELVAAITFSDTSTYYADSVKGRFTISRDNAKNTVYLQMNSLKPEDTAVYYCAVVGPYYSRFGGRYYYWGQGTQVTVSS”: the “polyreactivity (PSR sort gate)” value is reported as “low polyreactivity”.

On to “QVQLVESGGGLVQAGVSLRLSCAASGSTVGYNAMGWYRQAPGKERELVAAISGNGGSTYADSVKGRFTISRDNAKNTVYLQMNSLKPEDTAVYFCAAVQYGYGLASDSIFDYWGQGTQVTVSS”, for which the “polyreactivity (PSR sort gate)” value is given as “high polyreactivity”.
